This assay addresses αvβ3 integrin receptor on human umbilical vein endothelial cells (HUVEC) (human, UniProt P06756 31-1048; P05106 27-788). Description: cell-based or functional assay.

We go through two molecules from patent publication US20140079638A1 (RAMOT AT TEL AVIV UNIVERSITY, published 2014).

No end group written: not given here.

αvβ3 integrin receptor on human umbilical vein endothelial cells (HUVEC), sequence (P06756 31-1048, chain 1 of 2): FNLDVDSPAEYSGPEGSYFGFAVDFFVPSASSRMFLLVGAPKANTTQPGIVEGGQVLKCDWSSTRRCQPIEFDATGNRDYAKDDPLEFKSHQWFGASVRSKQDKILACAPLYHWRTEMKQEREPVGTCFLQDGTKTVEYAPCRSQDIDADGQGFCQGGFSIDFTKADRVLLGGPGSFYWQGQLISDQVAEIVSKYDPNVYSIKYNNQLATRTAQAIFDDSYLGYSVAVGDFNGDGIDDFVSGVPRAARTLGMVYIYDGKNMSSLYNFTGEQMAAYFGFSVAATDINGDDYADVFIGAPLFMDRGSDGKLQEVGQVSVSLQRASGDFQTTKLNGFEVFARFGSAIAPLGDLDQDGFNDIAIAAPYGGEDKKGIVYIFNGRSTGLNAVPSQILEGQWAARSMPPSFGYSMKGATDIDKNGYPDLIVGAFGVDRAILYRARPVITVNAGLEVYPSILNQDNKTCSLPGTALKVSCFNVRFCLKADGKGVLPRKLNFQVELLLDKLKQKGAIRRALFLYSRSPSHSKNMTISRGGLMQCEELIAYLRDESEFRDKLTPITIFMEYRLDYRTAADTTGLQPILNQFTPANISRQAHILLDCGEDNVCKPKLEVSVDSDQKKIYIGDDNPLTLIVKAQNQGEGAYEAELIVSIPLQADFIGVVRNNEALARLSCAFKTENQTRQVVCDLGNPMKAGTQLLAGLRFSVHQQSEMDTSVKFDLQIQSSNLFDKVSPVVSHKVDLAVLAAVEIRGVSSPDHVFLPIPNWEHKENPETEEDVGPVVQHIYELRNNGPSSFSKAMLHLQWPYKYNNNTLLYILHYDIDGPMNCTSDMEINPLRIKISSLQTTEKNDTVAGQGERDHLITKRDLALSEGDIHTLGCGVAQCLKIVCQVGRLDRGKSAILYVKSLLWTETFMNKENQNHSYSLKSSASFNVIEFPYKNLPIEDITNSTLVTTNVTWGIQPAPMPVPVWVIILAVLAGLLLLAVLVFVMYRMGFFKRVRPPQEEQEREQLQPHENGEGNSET
αvβ3 integrin receptor on human umbilical vein endothelial cells (HUVEC), sequence (P05106 27-788, chain 2 of 2): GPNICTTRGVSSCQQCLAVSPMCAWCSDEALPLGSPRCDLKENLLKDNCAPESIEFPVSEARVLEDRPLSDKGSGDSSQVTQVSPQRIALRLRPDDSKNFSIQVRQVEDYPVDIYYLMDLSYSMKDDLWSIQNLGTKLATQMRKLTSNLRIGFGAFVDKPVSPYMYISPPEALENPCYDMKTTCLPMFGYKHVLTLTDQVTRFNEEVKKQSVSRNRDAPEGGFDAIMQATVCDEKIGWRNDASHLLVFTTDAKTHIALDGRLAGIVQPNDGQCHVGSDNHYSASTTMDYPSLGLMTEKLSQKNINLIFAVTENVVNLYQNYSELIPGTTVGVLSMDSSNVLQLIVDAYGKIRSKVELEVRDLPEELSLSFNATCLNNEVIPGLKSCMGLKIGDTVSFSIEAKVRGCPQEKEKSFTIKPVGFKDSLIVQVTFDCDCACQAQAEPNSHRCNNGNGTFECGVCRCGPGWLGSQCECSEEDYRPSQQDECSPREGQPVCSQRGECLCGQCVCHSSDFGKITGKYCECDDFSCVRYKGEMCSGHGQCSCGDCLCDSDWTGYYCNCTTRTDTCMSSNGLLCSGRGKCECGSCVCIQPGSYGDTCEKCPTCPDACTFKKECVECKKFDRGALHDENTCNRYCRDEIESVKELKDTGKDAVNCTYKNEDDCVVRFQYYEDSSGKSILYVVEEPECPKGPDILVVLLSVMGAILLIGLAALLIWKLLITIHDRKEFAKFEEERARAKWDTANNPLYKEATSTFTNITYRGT

B1: PGA-Paclitaxel-E-[c(RGDfk)2] conjugate (SEQ ID NO:18) having a 5.5 mol % PTX and 3.9 mol % E-[c(RGDfk)2] loading (peptide)
peptide: RGDFKERGDFK
modifications: not fully specified (residues 4, 5, 10, 11, bridges); also: two cyclic RGDfk rings joined through Glu spacer, paclitaxel ester-linked to PGA, 5.5 mol %
On to B1, for which the “inhibition of HUVEC adhesion to fibrinogen” value was around 60%.

B2: PGA-Paclitaxel-E-[c(RGDfk)2] conjugate (SEQ ID NO:18) having a 2.6 mol % PTX and 5 mol % E-[c(RGDfk)2] loading (peptide)
peptide: RGDFKERGDFK
modifications: not fully specified (residues 4, 5, 10, 11, bridges); also: two cyclic RGDfk rings joined through Glu spacer, paclitaxel ester-linked to PGA, 2.6 mol %
For B2, the “inhibition of HUVEC adhesion to fibrinogen” value is around 60%.
